Measured values taken from patent publication US20230265167A1, “COMPOSITIONS HAVING NEUROREGENERATIVE APPLICATIONS” (GRIFOLS WORLDWIDE OPERATIONS LIMITED, priority 2020, published 2023).

Test system: SH-SY5Y cells
Assay: Neurite outgrowth (differentiation) in SH-SY5Y cells, Tubulin Tracker imaging
Type: cell-based, human
Description: Transferrin is utilized in cell culture and in-vivo to deliver iron as a nutrient to cells. This is typically accomplished through the actions of holo-transferrin (HoloTf) binding to, and endocytosis by, its cognate receptor CD71, the transferrin receptor 1 (TfR1). Transferrin is typically believed to provide cells with iron as a means to promote and sustain metabolic activity. […] Induction of neuronal differentiation was assessed by morphological parameters of neurite formation (a key element typically used as a marker of neuronal differentiation, neuronal health, and function) according to the procedures of Agholme, 2010. J. of Alzheimer's Disease. Vol. 20:1p 069-108; and Dyberg et al., 2017. PNAS Vol 114 (32), E6603-E6612.
Undifferentiated SH-SY5Y cells were seeded into 96 well clear bottom plates in media containing 0.1% FBS. A serum-free base media was utilized as recommended by the supplier for SH-SY5Y cells (Sigma, Cat #94030304-1VL). Twenty-four hours after seeding cells, a 3× stock solution of ApoTf, final concentrations indicated on the x-axis, in serum free base media was added to the cells. ApoTf was obtained and purified from pooled human plasma and dosed at a final concentration of 0.2 mg/mL.
Cells were allowed to differentiate for 6 days. Neurite growth was assessed by imaging and image analysis. […]
After obtaining images, the MetaExpress Neurite Outgrowth analysis module (Molecular Devices) was used to identify cells, cell bodies, and quantify neurites. […] The Outgrowth Fold Change was determined by setting the untreated control cells to a value of 1 with all other treatments shown relative to untreated control.
Undifferentiated SH-SY5Y cells were seeded and treated as described in Example 1. Neurite growth was assessed by imaging and image analysis. […] After obtaining images, the MetaExpress Neurite Outgrowth analysis module (Molecular Devices) was used to identify cell bodies and quantify neurites. […] The Outgrowth Fold Change was determined by setting the untreated control to a value of 1 with all other treatments shown relative to untreated control. […]

B1: apo-lactoferrin: structural and functional homologue of apo-transferrin, obtained from Athens Research & Technology (protein, UniProt P02788 20-710, looked up)
Lactotransferrin: GRRRSVQWCAVSQPEATKCFQWQRNMRKVRGPPVSCIKRDSPIQCIQAIAENRADAVTLDGGFIYEAGLAPYKLRPVAAEVYGTERQPRTHYYAVAVVKKGGSFQLNELQGLKSCHTGLRRTAGWNVPIGTLRPFLNWTGPPEPIEAAVARFFSASCVPGADKGQFPNLCRLCAGTGENKCAFSSQEPYFSYSGAFKCLRDGAGDVAFIRESTVFEDLSDEAERDEYELLCPDNTRKPVDKFKDCHLARVPSHAVVARSVNGKEDAIWNLLRQAQEKFGKDKSPKFQLFGSPSGQKDLLFKDSAIGFSRVPPRIDSGLYLGSGYFTAIQNLRKSEEEVAARRARVVWCAVGEQELRKCNQWSGLSEGSVTCSSASTTEDCIALVLKGEADAMSLDGGYVYTAGKCGLVPVLAENYKSQQSSDPDPNCVDRPVEGYLAVAVVRRSDTSLTWNSVKGKKSCHTAVDRTAGWNIPMGLLFNQTGSCKFDEYFSQSCAPGSDPRSNLCALCIGDEQGENKCVPNSNERYYGYTGAFRCLAENAGDVAFVKDVTVLQNTDGNNNEAWAKDLKLADFALLCLDGKRKPVTEARSCHLAMAPNHAVVSRMDKVERLKQVLLHQQAKFGRNGSDCPDKFCLFQSETKNLLFNDNTECLARLHGKTTYEKYLGPQYVAGITNLKKCSTSPLLEACEFLRK
modifications: iron-free apo form
notes: structural and functional homologue of apo-transferrin, obtained from Athens Research & Technology
neurogenesis / differentiation of SH-SY5Y (FIG. 4, proteins at 0.2 mg/mL): induced differentiation

B2: BDNF: brain-derived neurotrophic factor; NGF superfamily; SEQ ID NO: 6 (protein, listed as Homo sapiens)
chain: MFHQVRRVMTILFLTMVISYFGCMKAAPMKEANIRGQGGLAYPGVRTHGTLESVNGPKAGSRGLTSLADTFEHVIEELLDEDQKVRPNEENNKDADLYTSRVMLSSQVPLEPPLLFLLEEYKNYLDAANMSMRVRRHSDPARRGELSVCDSISEWVTAADKKTAVDMSGGTVTVLEKVPVSKGQLKQYFYETKCNPMGYTKEGCRGIDKRHWNSQCRTTQSYVRALTMDSKKRIGWRFIRIDTSCVCTLTIKRGR
differentiation of SH-SY5Y, factor alone (FIGS. 7A-7D, BDNF 25 ng/mL, GDNF 1000 ng/mL, CNTF 250 ng/mL, PACAP 200 nM): differentiation was not induced

B3: N-mut rec ApoTf: Y95F/Y188F Transferrin N-lobe mutant protein, SEQ ID 4, reduced iron-binding capacity (protein)
chain: VPDKTVRWCAVSEHEATKCQSFRDHMKSVIPSDGPSVACVKKASYLDCIRAIAANEADAVTLDAGLVYDAYLAPNNLKPVVAEFYGSKEDPQTFFYAVAVVKKDSGFQMNQLRGKKSCHTGLGRSAGWNIPIGLLYCDLPEPRKPLEKAVANFFSGSCAPCADGTDFPQLCQLCPGCGCSTLNQYFGFSGAFKCLKDGAGDVAFVKHSTIFENLANKADRDQYELLCLDNTRKPVDEYKDCHLAQVPSHTVVARSMGGKEDLIWELLNQAQEHFGKDKSKEFQLFSSPHGKDLLFKDSAHGFLKVPPRMDAKMYLGYEYVTAIRNLREGTCPEAPTDECKPVKWCALSHHERLKCDEWSVNSVGKIECVSAETTEDCIAKIMNGEADAMSLDGGFVYIAGKCGLVPVLAENYNKSDNCEDTPEAGYFAVAVVKKSASDLTWDNLKGKKSCHTAVGRTAGWNIPMGLLYNKINHCRFDEFFSEGCAPGSKKDSSLCKLCMGSGLNLCEPNNKEGYYGYTGAFRCLVEKGDVAFVKHQTVPQNTGGKNPDPWAKNLNEKDYELLCLDGTRKPVEEYANCHLARAPNHAVVTRKDKEACVHKILRQQQHLFGSNVTDCSGNFCLFRSETKDLLFRDDTVCLAKLHDRNTYEKYLGEEYVKAVGNLRKCSTSSLLEACTFRRP
modifications: Y95F/Y188F mutant
neurogenesis (neurite outgrowth) of SH-SY5Y (FIG. 3B, proteins at 0.2 mg/mL): almost equal to that of ApoTf and rec ApoTf at inducing differentiation
